Source: patent publication US20250236667A1, “ANTIBODIES TO MUTANT CALRETICULIN AND USES THEREOF” (CENTRAL ADELAIDE LOCAL HEALTH NETWORK INC, priority 2021, published 2025)

Legend:
[1] = system: TF-1 TpoR CALR^del61 cells; assay: Cell cycle analysis by flow cytometry (propidium iodide); assay type: cell-based, human; settings: 20 μg/mL, 48 hours; P=0.001
Experimental: Cell cycle analysis was carried out by flow cytometry. Briefly, TF-1 TpoR and TF-1 TpoR CALR^del61 cells were seeded at a concentration of ˜2×10^5 per well in triplicate under standard culture conditions, with the addition of 20 μg/mL IgG or 4D7. Cells were treated for 48 hours and were fixed by 70% (v/v) ethanol at 4° C. overnight. Fixed cells were rinsed twice with PBS and stained with 50 μg/mL propridium iodide (PI: ThermoFisher)+100 μg/mL RNAse A (QIAGEN). Cells were incubated for 30 minutes at RT in the dark and analysed on the BD FACSCantoII (BD Biosciences).

[2] = Pharmacokinetic measurement of serum level of 4D7; assay type: in vivo, mice; settings: 12.5 mg/kg intraperitoneal injection; 48 hours post injection
Experimental: A. Illustration showing bone marrow NSG engraftment model with TPO-independent TF-1 TpoR CALR^del61 cells treated with 4D7 or IgG control twice weekly, starting 7 days after engraftment via intraperitoneal injection and final measurements taken from euthanized mice. B. Pharmacokinetic measurements of serum level of 4D7 in mice after intraperitoneal injection at 1, 24, 48, 72 and 110 hours since administration. C. Percentage of human CD33+myeloid cells measured in peripheral blood at 3 weeks post-tail vein engraftment (n=5 mice per treatment). D. Kaplan-Meier survival curve of bone marrow engraftment model showing improved survival of mice treated with 4D7 compared with IgG control commencing I week after tail vein injection (n=5 mice per treatment). […]
All procedures were approved by the South Australian Health and Medical Research Animal Ethics Committee (Protocol SAM21-018). […] Tail vein bleeds were taken at 3 weeks and analysed via flow cytometry to determine human leukaemia content in the peripheral blood. […] Mice were monitored daily and euthanized once clinical symptoms were observed. […] Additionally, bone marrow from both femurs, spine and spleens were analysed for leukemic content as detailed above. […] Tumour progression was assessed through caliper measurements every 2 days. […]

[3] = system: healthy cord blood CD34+ cells; assay: cells; assay type: cell-based, human
Experimental: Umbilical cord blood (UCB) was collected with written consent from full-term deliveries at the Women's Health Unit, Lyell McEwin Hospital (Adelaide, South Australia) or the Department of Obstetrics and Gynecology, Medical University of Graz (Austria) with institutional review board approval (IRB approval: 31-322 ex 18/19; HREC/20/WCHN/65). Samples were processed using a Ficoll-Paque (GE Healthcare) density gradient to isolate mononuclear cells (800×g, room temperature, 30 minutes, deceleration off), followed by red cell lysis (ammonium-chloride-potassium lysing buffer) to remove remaining red blood cells. CD34 enrichment was performed by magnetic cell separation using CD34 Microbead kit (Miltenyi Biotech). Alternatively, purified CD34+ cells from cord-blood were purchased from Lonza. CD34+ cells with a purity above 90% were either cryopreserved or directly cultured in serum-free stem cell retention media (StemSpan SFEMII, Stemcell Technologies, Vancouver, BC, Canada) supplemented with human recombinant SCF, TPO, FLT3, IL-6 (all 20 ng/mL), UM729 (1.75 uM) and StemReginin 1 (SR1, 300 nM). All cytokines and SRI were purchased from PeproTech (Rocky Hill, NJ, USA) whereas UM729 was purchased from Stemcell Technologies.
For megakaryocyte differentiation assays, CD34+ cells derived from cord blood or from patient peripheral blood mononuclear fractions were plated in Megacult (MegaCult™-C Collagen and Medium with Lipids) with added IL-3 and IL-6 (10 ng/ml) in the presence or absence of 50 ng/mL TPO. Cells were plated at an initial density of 1800 cells/well and cultured for 12 days at 37° C. and 5% CO2. […] Culture media was replenished every 3 days and cells were assessed for megakaryocyte differentiation on day 12 using anti-human CD41/61 PE-Cy7 (Clone A2A9/6) and CountBright beads (Thermo Fisher) to enumerate cell numbers. […] Cells were seeded at approximately 100 cells per well and were cultured in the presence of 20 μg/mL 4D7 or control IgG antibody and scored for colony and blast forming units at 12-14 days.

B1: 4D7: rat monoclonal IgG2a antibody against the mutant CALR neoepitope; VH SEQ ID NO: 5, VL SEQ ID NO: 7 (antibody, listed as Rattus rattus, V domains shown)
VH: QVQLQQSGAELAKPGSSVKISCKASGYTFTNYDMSWIKQRPGQALEWIGAINPGNGVTDYNEKFRGKATLTVDKSSSTAFMQLSSLTPEDTAVYHCAREYRDNYGYFDYWGQGVMVTVSS
VL: DIVLTQTPVSLSVTLGDQASISCRSSQSLEYSDGYTYLDWFLQKPGQSPQLLIYEVSSRFSGVPDRFIGRGSGTDFTLKISRVEPEDLGVYYCFQATHDPFTFGSGTKLEIK
sub-Go fraction compared to IgG control [1]: significant increase
serum concentration [2]: more than 100 μg/mL
effect on normal hematopoiesis [3]: no effect
